# Values quoted from earlier work in PMC3686494.
# Biological target: AgCad1 (cadherin) CR9-11 (Anopheles gambiae)
# Assay: one-site saturation binding
substance,measurement,value
Cry4Ba (from UniProt P05519),Kd,13 nM
